B1: h009-07 (antibody, human IgG1, kappa)
heavy: not shown
light: EIVLTQSPATLSLSPGERATLSCRASQSIYTNLHWYQQKPGQSPRLLIKYASQSISGIPARFSGSGSGTDFTLTISSLEPEDFAVYYCQQSNSWPLTFGGGTKVEIKRTVAAPSVFIFPPSDEQLKSGTASVVCLLNNFYPREAKVQWKVDNALQSGNSQESVTEQDSKDSTYSLSSTLTLSKADYEKHKVYACEVTHQGLSSPVTKSFNRGEC
notes: Humanized, human IgG1 / kappa; h009 VH2 + h009 VL2
B2: h009-08 (antibody, human IgG1, kappa, V domains shown)
VH: EFQLVQSGAEVKKPGASVKVSCKASGYTFTDYNLNWVRQAPGQSLEWIGVINPKYDAINYNQKFKDRATITVDTSASTAYMELSSLRSEDTAVYYCAREGWGKALDYWGQGTLVTVSS
VL: EIVLTQSPATLSLSPGERATLSCRASQSIYTNLHWYQQKPGQSPRLLIKYASQSISGIPARFSGSGSGTDFTLTISSLEPEDFAVYYCQQSNSWPLTFGGGTKVEIKR
B3: h009-09 (antibody, human IgG1, kappa, V domains shown)
VH: EFQLVQSGAEVKKPGASVKVSCKASGYTFTDYNLNWVKQAPGQSLEWMGVINPKYDAINYNQKFKDKVTLTVDQSASTAYMELSSLRSEDTAVYYCAREGWGKALDYWGQGTLVTVSS
VL: EIVLTQSPATLSLSPGERATLSCRASQSIYTNLHWYQQKPGQSPRLLIKYASQSISGIPARFSGSGSGTDFTLTISSLEPEDFAVYYCQQSNSWPLTFGGGTKVEIKR
B4: h009-10 (antibody, human IgG1, kappa, V domains shown)
VH: EFQLVQSGAEVKKPGASVKVSCKASGYTFTDYNLNWVKQAPGQSLEWIGVINPKYDAINYNQKFKDKATLTVDQSASTAYMELSSLRSEDTAVYYCAREGWGKALDYWGQGTLVTVSS
VL: EIVLTQSPATLSLSPGERATLSCRASQSIYTNLHWYQQKPGQSPRLLIKYASQSISGIPARFSGSGSGTDFTLTISSLEPEDFAVYYCQQSNSWPLTFGGGTKVEIKR
B5: h009-11 (antibody, human IgG1, kappa, V domains shown)
VH: EVQLVQSGAEVKKPGASVKVSCKASGYTFTDYNLNWVRQAPGQRLEWMGVINPKYDAINYNQKFKDRVTITRDTSASTAYMELSSLRSEDTAVYYCAREGWGKALDYWGQGTLVTVSS
VL: EFVLTQSPATLSLSPGERATLSCRASQSIYTNLHWYQQKPGQSPRLLIKYASQSISGIPARFSGSGSGTDFTLTISSLEPEDFAVYFCQQSNSWPLTFGGGTKVEIKR
B6: h009-12 (antibody, human IgG1, kappa, V domains shown)
VH: EFQLVQSGAEVKKPGASVKVSCKASGYTFTDYNLNWVRQAPGQSLEWMGVINPKYDAINYNQKFKDRVTITVDTSASTAYMELSSLRSEDTAVYYCAREGWGKALDYWGQGTLVTVSS
VL: EFVLTQSPATLSLSPGERATLSCRASQSIYTNLHWYQQKPGQSPRLLIKYASQSISGIPARFSGSGSGTDFTLTISSLEPEDFAVYFCQQSNSWPLTFGGGTKVEIKR
B7: h009-13 (antibody, human IgG1, kappa, V domains shown)
VH: EFQLVQSGAEVKKPGASVKVSCKASGYTFTDYNLNWVRQAPGQSLEWIGVINPKYDAINYNQKFKDRATITVDTSASTAYMELSSLRSEDTAVYYCAREGWGKALDYWGQGTLVTVSS
VL: EFVLTQSPATLSLSPGERATLSCRASQSIYTNLHWYQQKPGQSPRLLIKYASQSISGIPARFSGSGSGTDFTLTISSLEPEDFAVYFCQQSNSWPLTFGGGTKVEIKR
B8: h009-14 (antibody, human IgG1, kappa, V domains shown)
VH: EFQLVQSGAEVKKPGASVKVSCKASGYTFTDYNLNWVKQAPGQSLEWMGVINPKYDAINYNQKFKDKVTLTVDQSASTAYMELSSLRSEDTAVYYCAREGWGKALDYWGQGTLVTVSS
VL: EFVLTQSPATLSLSPGERATLSCRASQSIYTNLHWYQQKPGQSPRLLIKYASQSISGIPARFSGSGSGTDFTLTISSLEPEDFAVYFCQQSNSWPLTFGGGTKVEIKR
B9: h009-15 (antibody, human IgG1, kappa, V domains shown)
VH: EFQLVQSGAEVKKPGASVKVSCKASGYTFTDYNLNWVKQAPGQSLEWIGVINPKYDAINYNQKFKDKATLTVDQSASTAYMELSSLRSEDTAVYYCAREGWGKALDYWGQGTLVTVSS
VL: EFVLTQSPATLSLSPGERATLSCRASQSIYTNLHWYQQKPGQSPRLLIKYASQSISGIPARFSGSGSGTDFTLTISSLEPEDFAVYFCQQSNSWPLTFGGGTKVEIKR
B10: h160-01 (antibody, human IgG1, kappa)
heavy: not shown
light: DIVMTQSPASLAVSLGERATINCRASESVDNYGISFMHWYQQKPGQPPKLLIYRASNLESGVPDRFSGSGSGTDFTLTISSLQAEDVAVYYCQQTNKDPLTFGGGTKVEIKRTVAAPSVFIFPPSDEQLKSGTASVVCLLNNFYPREAKVQWKVDNALQSGNSQESVTEQDSKDSTYSLSSTLTLSKADYEKHKVYACEVTHQGLSSPVTKSFNRGEC
notes: Humanized, human IgG1 / kappa; h160 VH1 + h160 VL1
B11: h011-01 (antibody, human IgG1, kappa)
heavy: not shown
light: DIVMTQSPDSLAVSLGERATINCRASENVDNYGISFMHWYQQKPGQPPKLLIYRASNLESGVPDRFSGSGSGTDFTLTISSLQAEDVAVYYCQQSNKDPLTFGGGTKVEIKRTVAAPSVFIFPPSDEQLKSGTASVVCLLNNFYPREAKVQWKVDNALQSGNSQESVTEQDSKDSTYSLSSTLTLSKADYEKHKVYACEVTHQGLSSPVTKSFNRGEC
notes: Humanized, human IgG1 / kappa; h011 VH1 + h011 VL1
B12: h011-02 (antibody, human IgG1, kappa, V domains shown)
VH: EVQLVESGGGLVQPGGSLRLSCAASGFTFSDYGMHWVRQAPGKGLEWVAFISSGSSSIYYADTVKGRFTISRDNAKSSLFLQMTSLRAEDTAVYSCARNYVSSYGYFDYWGQGTTVTVSS
VL: DIVMTQSPDSLAVSLGERATINCRASENVDNYGISFMHWYQQKPGQPPKLLIYRASNLESGVPDRFSGSGSGTDFTLTISSLQAEDVAVYYCQQSNKDPLTFGGGTKVEIKR
B13: h011-03 (antibody, human IgG1, kappa, V domains shown)
VH: EVQLVESGGGLVQPGGSLRLSCAASGFTFSDYGMHWVRQAPGKGLEWVAFISSGSSSIYYADTVKGRFTISRDNAKSSLYLQMTSLRAEDTAVYYCARNYVSSYGYFDYWGQGTTVTVSS
VL: DIVMTQSPDSLAVSLGERATINCRASENVDNYGISFMHWYQQKPGQPPKLLIYRASNLESGVPDRFSGSGSRTDFTLTISSLQAEDVAVYYCQQSNKDPLTFGGGTKVEIKR
B14: h011-04 (antibody, human IgG1, kappa, V domains shown)
VH: EVQLVESGGGLVQPGGSLRLSCAASGFTFSDYGMHWVRQAPGKGLEWVAFISSGSSSIYYADTVKGRFTISRDNAKSSLFLQMTSLRAEDTAVYSCARNYVSSYGYFDYWGQGTTVTVSS
VL: DIVMTQSPDSLAVSLGERATINCRASENVDNYGISFMHWYQQKPGQPPKLLIYRASNLESGVPDRFSGSGSRTDFTLTISSLQAEDVAVYYCQQSNKDPLTFGGGTKVEIKR
B15: h011-05 (antibody, human IgG1, kappa, V domains shown)
VH: EVQLVESGGGLVQPGGSLRLSCAASGFTFSDYGMHWVRQAPGKGLEWVAFISSGSSSIYYADTVKGRFTISRDNAKSSLYLQMTSLRAEDTAVYYCARNYVSSYGYFDYWGQGTTVTVSS
VL: DIVMTQSPDSLAVSLGERATINCRASENVDNYGISFMHWYQQKPGQPPKLLIYRASNLESGIPDRFSGSGSRTDFTLTISSLQAEDVATYYCQQSNKDPLTFGGGTKVEIKR
B16: h160-02 (antibody, human IgG1, kappa)
heavy: not shown
light: DIVLTQSPASLAVSLGERATINCRASESVDNYGISFMHWYQQKPGQPPKLLIYRASNLESGVPDRFSGSGSGTDFTLTISSLQAEDVAVYYCQQTNKDPLTFGGGTKVEIKRTVAAPSVFIFPPSDEQLKSGTASVVCLLNNFYPREAKVQWKVDNALQSGNSQESVTEQDSKDSTYSLSSTLTLSKADYEKHKVYACEVTHQGLSSPVTKSFNRGEC
B17: h160-03 (antibody, human IgG1, kappa, V domains shown)
VH: EVQLVESGGGLVQPGGSLRLSCAASGFTFSDYGMHWVRQAPGKGLEWVAFISTGSSNIYYVDKVKGRFTISRDNAKNTLYLQMTSLRAEDTAVYYCARNYVSSYGYFDYWGQGTTVTVSS
VL: DIVLTQSPASLAVSLGERATINCRASESVDNYGISFMHWYQQKPGQPPKLLIYRASNLESGVPARFSGSGSRTDFTLTISSLQAEDVAVYYCQQTNKDPLTFGGGTKVEIKR
B18: h160-04 (antibody, human IgG1, kappa, V domains shown)
VH: EVQLVESGGGLVQPGGSLRLSCAASGFTFSDYGMHWVRQAPGKGLEWVAFISTGSSNIYYVDKVKGRFTISRDNAKNTLYLQMTSLRAEDTAVYYCARNYVSSYGYFDYWGQGTTVTVSS
VL: DIVLTQSPASLAVSLGERATISCRASESVDNYGISFMHWYQQKPGQPPKLLIYRASNLESGIPARFSGSGSRTDFTLTISSLQAEDVAVYYCQQTNKDPLTFGGGTKVEIKR
B19: h160-05 (antibody, human IgG1, kappa)
heavy: not shown
light: DIVMTQSPASLAVSLGERATINCRASESVDNYGISFMHWYQQKPGQPPKLLIYRASNLESGVPDRFSGSGSGTDFTLTISSLQAEDVAVYYCQQTNKDPLTFGGGTKVEIKRTVAAPSVFIFPPSDEQLKSGTASVVCLLNNFYPREAKVQWKVDNALQSGNSQESVTEQDSKDSTYSLSSTLTLSKADYEKHKVYACEVTHQGLSSPVTKSFNRGEC
B20: h160-06 (antibody, human IgG1, kappa)
heavy: not shown
light: DIVLTQSPASLAVSLGERATINCRASESVDNYGISFMHWYQQKPGQPPKLLIYRASNLESGVPDRFSGSGSGTDFTLTISSLQAEDVAVYYCQQTNKDPLTFGGGTKVEIKRTVAAPSVFIFPPSDEQLKSGTASVVCLLNNFYPREAKVQWKVDNALQSGNSQESVTEQDSKDSTYSLSSTLTLSKADYEKHKVYACEVTHQGLSSPVTKSFNRGEC

These binders were tested against T1, Fusion protein of CD38 extracellular domain with His tag: CD38-ECD-His (human, UniProt P28907 43-300) (assay: SPR (Biacore), antibody captured by anti-human Fc, CD38-ECD-His as analyte;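 further: human CD38-ECD-His flowed over the captured antibody with the signal tracked in real time, and association and dissociation curves were fitted to derive the affinity values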).
T1 construct: unlabelled analyte in Biacore; also called human CD38-ECD-His; Human CD38-His
Experimental: Then the human CD38-ECD-His antigen passed through the surface of the chip, and a real-time detection for the reaction signal was performed with Biacore instrument. The resulting binding and dissociation curves were fitted to calculate the affinity values. After the dissociation of each cycle was completed in the experiment, the biochip was washed and regenerated with the regeneration solution supplied in the Human Fc Capture Kit (GE).
B1 gave a Kd of 995 pM, a koff of 0.0021 s⁻¹ and a kon of 2.11e+06 M⁻¹ s⁻¹. For B2, the Kd was 1180 pM, the koff was 0.00223 s⁻¹ and the kon was 1.89e+06 M⁻¹ s⁻¹. With B3 the Kd was 2140 pM, the koff was 0.00489 s⁻¹ and the kon was 2.29e+06 M⁻¹ s⁻¹. With B4 the Kd was 2120 pM, the koff was 0.00433 s⁻¹ and the kon was 2.04e+06 M⁻¹ s⁻¹. For B5, the Kd was 5170 pM, the koff was 0.0121 s⁻¹ and the kon was 2.33e+06 M⁻¹ s⁻¹. B6 was tested, and the Kd was 409 pM, the koff was 0.000917 s⁻¹ and the kon was 2.24e+06 M⁻¹ s⁻¹. B7 was tested, and the Kd was 465 pM, the koff was 0.00106 s⁻¹ and the kon was 2.28e+06 M⁻¹ s⁻¹. Binder B8 has a Kd of 815 pM, a koff of 0.00185 s⁻¹ and a kon of 2.27e+06 M⁻¹ s⁻¹. Work on B9 yielded a Kd of 745 pM, a koff of 0.0017 s⁻¹ and a kon of 2.28e+06 M⁻¹ s⁻¹. B10 was tested, and the Kd was 68.7 pM, the koff was 0.000136 s⁻¹ and the kon was 1.99e+06 M⁻¹ s⁻¹. For B11, the Kd was 311 pM, the koff was 0.00208 s⁻¹ and the kon was 6.68e+06 M⁻¹ s⁻¹. Binder B12 has a Kd of 297 pM, a koff of 0.00195 s⁻¹ and a kon of 6.59e+06 M⁻¹ s⁻¹. B13 showed a Kd of 306 pM, a koff of 0.00213 s⁻¹ and a kon of 6.97e+06 M⁻¹ s⁻¹. B14 was tested, and the Kd was 299 pM, the koff was 0.00202 s⁻¹ and the kon was 6.76e+06 M⁻¹ s⁻¹. B15 gave a Kd of 309 pM, a koff of 0.00213 s⁻¹ and a kon of 6.89e+06 M⁻¹ s⁻¹. With B16 the Kd was 84.6 pM, the koff was 0.000163 s⁻¹ and the kon was 1.93e+06 M⁻¹ s⁻¹. Work on B17 yielded a Kd of 77.9 pM, a koff of 0.000187 s⁻¹ and a kon of 2.4e+06 M⁻¹ s⁻¹. In the case of B18, the Kd is reported as 86.7 pM, the koff is reported as 0.000184 s⁻¹ and the kon is reported as 2.12e+06 M⁻¹ s⁻¹. For B19, the Kd was 69.1 pM, the koff was 0.000141 s⁻¹ and the kon was 2.05e+06 M⁻¹ s⁻¹. For B20, the Kd was 78.2 pM, the koff was 0.000164 s⁻¹ and the kon was 2.09e+06 M⁻¹ s⁻¹.

— patent publication US20220275100A1 (JIANGSU HENGRUI MEDICINE, published 2022)
